Laboratory results published in patent publication US9650421B2, “Self-assembled nanostructures” (NORTHWESTERN UNIVERSITY, priority 2011, dated 2017).
No end group written: not given here.

Tests used:
1200 bp DNA fragment = test: Agarose gel shift assay of DNA binding; settings: for peptide concentration at which no free DNA can be detected: 200 ng DNA in 20 μl; for peptide molecules for one molecule of DNA at full binding / peptides per base pair at full binding: at 20 μM peptide
Experimental: FIG. 6 depicts agarose gel electrophoresis of complexes of 2 and a 1200 bp DNA fragment. Each sample was prepared in a volume of 20 μl Well 1: 200 ng of 1200 bp DNA fragment; Well 2—10: 200 ng of 1200 bp DNA fragment+2 at a concentration of 2.5-5-7.5-10-15-20-25-35-45 μM.
The ability of compounds 1 and 2 to bind to nucleic acids was assayed by agarose gel shift assays where DNA was mixed with peptides 1 and 2 in different ratio. (FIG. 6). According to these studies at a peptide concentration of 20 μM, no free DNA can be detected in the sample. This corresponds to a ratio of approximately 1600 peptide molecules for one molecule of DNA, or 1.3 peptides per base pair.

[1] = system: double strand DNA fragments; test: TEM of peptide-linear double strand DNA fragment complexes; format: physicochemical; settings: for morphology of complexes with short DNA fragments: short ds DNA fragments (150, 300 bp); for morphology of complexes with DNA fragments above 300 bp: template length above 300 bp (600, 1200 bp)
Experimental: A Complex between 1 (80 μM) and ds 150 bp DNA fragment (200 ng) in 20 μl of 25 mM Tris buffer (pH 7.4, 25 mM) B Complex between 2 (80 μM) and ds 150 bp fragment (200 ng) in 20 μl of 25 mM Tris buffer (pH 7.4, 25 mM) C Complex between 1 (80 μM) and ds 300 bp DNA fragment (200 ng) in 20 μl of 25 mM Tris buffer (pH 7.4, 25 mM) D Complex between 2 (80 μM) and ds 300 bp fragment (200 ng) in 20 μl of 25 mM Tris buffer (pH 7.4, 25 mM).
A Complex between 1 (80 μM) and ds 600 bp DNA fragment (200 ng) in 20 μl of 25 mM Tris buffer (pH 7.4, 25 mM) B Complex between 2 (80 μM) and ds 600 bp fragment (200 ng) in 20 μl of 25 mM Tris buffer (pH 7.4, 25 mM) C Complex between 1 (80 μM) and ds 1200 bp DNA fragment (200 ng) in 20 μl of 25 mM Tris buffer (pH 7.4, 25 mM) D Complex between 2 (80 μM) and ds 1200 bp fragment (200 ng) in 20 μl of 25 mM Tris buffer (pH 7.4, 25 mM).
(§1) Complexes between nucleic acid templates and molecules 1, 2 and 3 were prepared under conditions where no more free DNA could be detected by gel electrophoresis and analyzed by transmission electron microscopy (TEM).
The toroid proportion is insignificant as they are difficult to observe. Furthermore, the length of the complexes was homogenous, and around 706 nm in average. The calculated length of the PBR322 plasmid in a supercoiled conformation is 737 nm, very close to the observed dimensions. A slight shortening of the complexes can be explained by the contraction of DNA in the presence of multivalent counterions. Complexes of short double strand DNA fragments (25-1200 bp) have also been prepared and observed by TEM. (FIG. 8). The expected control of the dimensions of the complexes by template effect clearly obeys different regimes depending both of the length of the template and design of the artificial capsomers.

[2] = system: plasmid pBR322 DNA template; test: TEM of peptide-plasmid DNA complexes; format: physicochemical; settings: peptide 80 μM, plasmid 200 ng in 20 μl 25 mM Tris buffer pH 7.4
Experimental: A Complex between 3 (80 μM) and plasmid pbr322 (200 ng) in 20 μl of 25 mM Tris buffer (pH 7.4, 25 mM) B Complex between 1 (80 μM) and plasmid pbr322 (200 ng) in 20 μl of 25 mM Tris buffer (pH 7.4, 25 mM) C Complex between 2 (80 μM) and plasmid pbr322 (200 ng) in 20 μl of 25 mM Tris buffer (pH 7.4, 25 mM).
as §1

nucleic acid = settings: physiological nucleic acid ligand; cited from earlier work
[3] = Circular dichroism of the peptide (alpha-helical content); format: physicochemical
Experimental: FIG. 3 depicts circular dichroism of peptide 1 at 21 μM at pH 8 in Tris buffer.
The self-assembly of molecules 1 and 2 into mushroom-shaped nanostructures by coiled-coil formation is an aspect of the disclosure. The self-assembly of the block copolymer 1 was characterized under physiological conditions to probe its propensity to generate […] coiled-coils aggregates.

[4] = Sedimentation velocity analytical ultracentrifugation; format: physicochemical
Experimental: Sedimentation velocity experiments were conducted in the same buffer as the equilibrium experiments. Velocity experiments were performed at 50 krpm and 23° C., scans were taken at 230 nm in intensity mode. The data were analyzed with the 2-dimensional spectrum analysis (2DSA) [Brookes et al., European Biophysics Journal 39(3): 405-414 (2010)] and time invariant noise was subtracted. 2DSA results were further refined with the genetic algorithm analysis (GA) [Brookes et al., Proceedings of the 9th annual conference on Genetic and evolutionary computation 361-368 (2007)] coupled with Monte Carlo (MC) analysis [Demeler et al., UltraScan A Comprehensive Data Analysis Software Package for Analytical Ultracentrifugation Experiments. Analytical Ultracentrifugation—Techniques and Methods. Royal Society of Chemistry: 2005]. Sedimentation coefficient distributions were calculated with the van Holde-Weischet analysis [Demeler et al., Anal. Biochem. 335(2): 279-288 (2004)].
Weight-average sedimentation coefficients determined with the 2DSA-MC and the GA-MC analysis were both 2.26 s.

[5] = Sedimentation equilibrium analytical ultracentrifugation; format: physicochemical; design: partial specific volume: unit not given here
Experimental: The coiled-coil formation was then investigated further by analytical ultracentrifugation, which gives access to the absolute molecular weight of the aggregates in solution and subsequently their aggregation number. Equilibrium experiments were conducted at 23° C. and in 50 mM phosphate buffer containing 150 mM NaCl, pH 7.4. Three loading concentrations (18, 30 and 42 μM) were scanned at 230 nm, and sedimented to equilibrium at 20 krpm, 26.6 krpm, 33.3 krpm, and at 39.9 krpm, resulting in 12 scans which were globally fit to multiple models as described previously [Johnson et al., Biophys. J. 36(3): 575-588 (1981); Demeler et al., UltraScan A Comprehensive Data Analysis Software Package for Analytical Ultracentrifugation Experiments. Analytical Ultracentrifugation—Techniques and Methods. Royal Society of Chemistry: 2005]. The most appropriate model was chosen based on visual inspection of the residual run patterns and based on the best statistics. Statistics were evaluated with the Monte Carlo analysis implemented in UltraScan [Demeler et al., Colloid & Polymer Science 286(2): 129-137 (2008)].
A good fit was obtained when all scans were fitted globally to a single ideal species model (RMSD=7.3631e-03, see FIG. 4). A fixed molecular weight distribution model with 100 molecular weight slots between 10,000 and 50,000 Dalton provided slightly better statistics (RMSD=4.6435e-03) because of the additional degrees of freedom.
This molecular weight was consistent with a hexameric assembly of 1. […] Since both sedimentation velocity and sedimentation equilibrium experiments only measure the buoyant molecular weight of the sample, errors can be introduced when the partial specific volume is in error. The partial specific volume of 1 was not determined in an independent measurement, but it is reasonable to assume that due to the presence of the PEG2000 chain, the partial specific volume is actually higher than was estimated. The partial specific volume was therefore also fitted using the single species ideal equilibrium model, holding the molecular weight fixed at the theoretical estimate of 39,921 Daltons and determined a partial specific volume of […], which is reasonable considering the presence of the PEG2000 chain.

[6] = fixed molecular weight distribution model, Monte Carlo analysis

| Compound | peptide concentration at which no free DNA can be detected (1200 bp DNA fragment) [µM] | peptide molecules for one molecule of DNA at full binding (1200 bp DNA fragment) | peptides per base pair at full binding (1200 bp DNA fragment) | morphology of complexes with short DNA fragments [1] | morphology of complexes with DNA fragments above 300 bp [1] | average length of complexes with plasmid pBR322 [2] | morphology of complexes with plasmid pBR322 [2] | binding constant to nucleic acid (nucleic acid) | alpha-helical content ([3]; before addition of DNA, 21 μM, pH 8, Tris buffer) [%] | alpha-helical content ([3]; upon addition of DNA) [%] | weight-average sedimentation coefficient ([4]; 2DSA-MC and GA-MC analysis) [s] | frictional ratio ([4]; GA-MC analysis) | molecular weight of single species (94% of the signal) ([4]; GA-MC analysis) [kDa] | weight-average sedimentation coefficient ([4]; van Holde-Weischet analysis, 50 krpm, 23° C.) [s] | molecular weight of the species in solution, single ideal species fit ([5]; 23° C., 50 mM phosphate buffer, 150 mM NaCl, pH 7.4, 18, 30 and 42 μM) [kDa] | oligomeric state in solution ([5]; concentrations between 18 and 42 μM) | partial specific volume ([5]; fitted with single species ideal equilibrium model, molecular weight fixed at 39,921 Daltons) | Z-average molecular weight [5, 6] [kDa] | number-average molecular weight [5, 6] [kDa] | weight-average molecular weight [5, 6] [kDa] |
| --- | --- | --- | --- | --- | --- | --- | --- | --- | --- | --- | --- | --- | --- | --- | --- | --- | --- | --- | --- | --- |
| 2: Coiled-coil peptide (SEQ ID NO: 1) with spermine unit and mPEG5000-maleimide conjugated to an N-terminal cysteine residue ({C(mPEG5000-maleimide)}-REGVAKALRAVANALHYNASALEEVADALQKVKM; also: spermine unit, site not given here) [compound 2] | 20 | approximately 1600 | 1.3 | rodlike morphology and having predominantly the length of the DNA template | homogenous rods having predominantly a length corresponding to the DNA template folded in two | around 706 nm | only filamentous complexes were observed |  |  |  |  |  |  |  |  |  |  |  |  |  |
| NCCCNCCCCNCCCN [spermine] |  |  |  |  |  |  |  | micromolar range |  |  |  |  |  |  |  |  |  |  |  |  |
| peptide 1: Coiled-coil peptide (SEQ ID NO: 1) with C-terminal lysine-linked spermine DNA binding unit and PEG2000 carboxylic acid coupled to N-terminus ({PEG2000 carboxylic acid}-REGVAKALRAVANALHYNASALEEVADALQKVKM; not fully specified (C-terminus)) | 20 | approximately 1600 | 1.3 | rodlike morphology and having predominantly the length of the DNA template | mixture of the expected filamentous complexes of different length and toroidal complexes |  | mixture of rods, branched and toroidal complexes |  | 36 | 53 | 2.26 | 1.370 | 33.74 | 2.28 | 33.38 | hexamer or heptameric oligomer | 0.809 | 36.28 | 32.34 | 34.67 |
